Reference: patent US20210163599A1 (AVACTA LIFE SCIENCES, published 2021)
Positions count from the first letter of the chain named. Names may count otherwise.

How the values were obtained:
huPD-L1 on H441 cells = biological target: T1, huPD-L1 on H441 cells (human, UniProt Q9NZQ7 19-290); assay: flow cytometry, % of positive H441 cells (human lung adenocarcinoma cells expressing PD-L1)
T1 construct: whole, on cells; also called H441 cells (expressing huPD-L1)
Procedure: The binding affinity of AVA04 Affimer polypeptides was determined using Flow cytometry on Human lung adenocarcinoma cell line. […] Cells were collected by centrifugation at 300 rpm for 5 min. The cells were resuspended in PBS and 50000 cells per wells were dispatched in a round bottom 96 well plate. Cells were washed with PBS. Affimer and controls were diluted in staining buffer (R&D) in duplicate and added on cells for staining for approximately 60 min at 4±1° c. Cells were washed and the secondary anti-Cystatin A (R&D) was diluted 1:15 in staining buffer (R&D) and added on cells for staining for approximately 40 min at 4±1° c. Cells were washed and the detection antibody A488 anti-Goat (Biolegend) was diluted 1:100 in staining buffer (R&D) and added on cells for staining for approximately 30 min at 4±1° c. Finally, cells were washed, live and dead cells were stained using L/D stain Zombie Aqua (Biolegend) diluted in staining buffer for 10 min at 4±1° c. Cells were washed and fixation buffer (R&D) was added to each well for 10 min at 4±1° C. then PBS with EDTA (Lonza) was added prior reading the plate on the flow cytometer (Guava 12 HT, Millipore). Dead cells were excluded and the fluorescent Green channel (488 nm/525/30) was acquired. Results were analyzed using Incyte and data were plotted using graphpad.

huPD-L1-Fc (R&D Systems) [1] = biological target: T2, huPD-L1-Fc (R&D Systems) (human, UniProt Q9NZQ7 19-239); assay: Biacore (target not named on the sheet; PD-L1 by the example)
T2 construct: Bought from R&D Systems; also called hPDL1-Fc; human PD-L1 Fc antigen
T2 sequence (Q9NZQ7 19-239 limits assumed): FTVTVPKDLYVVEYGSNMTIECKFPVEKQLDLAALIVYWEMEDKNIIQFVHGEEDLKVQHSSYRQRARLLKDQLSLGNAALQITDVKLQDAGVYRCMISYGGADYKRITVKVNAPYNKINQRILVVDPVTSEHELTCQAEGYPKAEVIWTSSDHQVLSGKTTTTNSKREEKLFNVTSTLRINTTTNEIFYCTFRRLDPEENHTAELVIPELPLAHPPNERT

huPD-L1-Fc (R&D Systems) [2] = biological target: T2, huPD-L1-Fc (R&D Systems); assay: Biacore
huPD-L1-Fc (R&D Systems) [3] = biological target: T2, huPD-L1-Fc (R&D Systems); assay: Biacore T200, PD-L1-Fc immobilised on CM5, Affimer as analyte, 1:1 Langmuir fit
Procedure: The concentration titration of Affimer monomer was run as analyte with an association time of 150 seconds, followed by a dissociation time of 300 seconds at a flow rate of 30 μl/min. […] The data blank was subtracted and fit to a 1:1 Langmuir binding model (BIAcore evaluation software; GE) to calculate an apparent KD value.

huPD-L1-Fc (R&D Systems) [4] = biological target: T2, huPD-L1-Fc (R&D Systems); assay: competition ELISA: hu PD-1-Fc coated, binder preincubated with 30 ng/ml huPD-L1-Fc; blocked ligand PD-1
Procedure: Plates were washed 2 times with 150 μl of washing buffer (PBS, Tween 20 0.1%) with a plate washer and saturated with Casein 5% (Sigma) in PBS for 90 minutes at room temperature (25±1° C.) Plates were washed as described previously. […] The reaction was stopped using an acidic solution and plates were read at 450-630 nm. The IC 50 was then calculated using the interpolated non-linear four-parameters standard curve.

T1 sequence (Q9NZQ7 19-290): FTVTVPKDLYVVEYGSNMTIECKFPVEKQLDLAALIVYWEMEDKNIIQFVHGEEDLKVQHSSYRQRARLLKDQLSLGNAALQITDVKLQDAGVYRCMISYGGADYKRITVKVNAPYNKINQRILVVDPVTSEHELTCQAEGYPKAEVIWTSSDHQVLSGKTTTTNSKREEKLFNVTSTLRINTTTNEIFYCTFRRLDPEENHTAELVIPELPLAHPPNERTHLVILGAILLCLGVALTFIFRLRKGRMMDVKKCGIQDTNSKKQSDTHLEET

B1: AVA04-251 (designed binder)
chain: MIPRGLSEAKPATPEIQEIVDKVKPQLEEKTNETYGKLEAVQYKTQVLAREGRQDWVLSTNYYIKVRAGDNKYMHLKVFNGPWVPFPHQQLADRVLTGYQVDKNKDDELTGFAAAGHHHHHH
Q: For B1, which EC50 (huPD-L1 on H441 cells) is on record?
A: Its EC50 is 2.06 nM.

B2: AVA04-261 BN (designed binder)
chain: MIPRGLSEAKPATPEIQEIVDKVKPQLEEKTNETYGKLEAVQYKTQVLAHAYGPRDWDSTNYYIKVRAGDNKYMHLKVFNGPPADHVLEEAADRVLTGYQVDKNKDDELTGFGGGGSGGGGSGGGGSGGGGSEPKSCDKTHTCPPCPHHHHHH
notes: Affimer - (G4S)4 - human IgG1 hinge - His; dimerises through the hinge cysteines
Q: Which koff (huPD-L1-Fc (R&D Systems) [1]) does the source give for B2 here?
A: Its koff is 0.000156 s⁻¹.

Q: And the kon (huPD-L1-Fc (R&D Systems) [1])?
A: The kon was 2.61e+06 M⁻¹ s⁻¹.

Q: What about the Kd (huPD-L1-Fc (R&D Systems) [2]) of the same binder?
A: Its Kd is 0.0599 nM.

B3: AVA04-141 Monomer His (designed binder)
Affimer polypeptide: MIPRGLSEAKPATPEIQEIVDKVKPQLEEKTNETYGKLEAVQYKTQVLAAAHFPEHFWSTNYYIKVRAGDNKYMHLKVFNGPQPADMSAEFADRVLTGYQVDKNKDDELTGFAAAGHHHHHH
notes: also called Affimer monomer; AVA04 clone 141
Q: B3 was tested. Which Kd (huPD-L1-Fc (R&D Systems) [3]) did it give?
A: Its Kd is 8.9 nM.

Q: What about the koff (huPD-L1-Fc (R&D Systems) [3]) of the same binder?
A: Its koff is 0.0251 s⁻¹.

Q: What about the kon (huPD-L1-Fc (R&D Systems) [3]) of the same binder?
A: Its kon is 2.81e+06 M⁻¹ s⁻¹.

Q: What about the IC50 (huPD-L1-Fc (R&D Systems) [4]) of the same binder?
A: The IC50 was 2.5 nM.

B4: AVA04-231 (designed binder)
Affimer polypeptide: MIPRGLSEAKPATPEIQEIVDKVKPQLEEKTNETYGKLEAVQYKTQVLANTWFPESFWSTNYYIKVRAGDNKYMHLKVFNGPDDNQERQEHADRVLTGYQVDKNKDDELTGFAAAGHHHHHH
notes: also called AVA04 clone 231
Q: How did the EC50 (huPD-L1 on H441 cells) turn out when B4 was run?
A: The EC50 was 9.51 nM.

B5: AVA04-228 (designed binder)
Affimer polypeptide: MIPRGLSEAKPATPEIQEIVDKVKPQLEEKTNETYGKLEAVQYKTQVLAKPYGPRDWDSTNYYIKVRAGDNKYMHLKVFNGPEPQLDTSPIADRVLTGYQVDKNKDDELTGFAAAGHHHHHH
notes: also called AVA04 clone 228
Q: How did the EC50 (huPD-L1 on H441 cells) turn out when B5 was run?
A: The EC50 was 0.18 nM.

B6: AVA04-261 (designed binder)
chain: MIPRGLSEAKPATPEIQEIVDKVKPQLEEKTNETYGKLEAVQYKTQVLAHAYGPRDWDSTNYYIKVRAGDNKYMHLKVFNGPPADHVLEEAADRVLTGYQVDKNKDDELTGFAAAGHHHHHH
Q: With B6 as the binder, how does the EC50 (huPD-L1 on H441 cells) read?
A: The EC50 was 0.043 nM.

B7: AVA04-211 (designed binder)
Affimer polypeptide: MIPRGLSEAKPATPEIQEIVDKVKPQLEEKTNETYGKLEAVQYKTQVLAKDWGPSNWWSTNYYIKVRAGDNKYMHLKVFNGPVDDKTLSKDADRVLTGYQVDKNKDDELTGFAAAGHHHHHH
notes: also called AVA04 clone 211
Q: B7 was tested. Which EC50 (huPD-L1 on H441 cells) did it give?
A: Its EC50 is 0.21 nM.

B8: AVA04-227 (designed binder)
Affimer polypeptide: B7 Affimer polypeptide with W52H, S55I, N56A, V83E, D85T, K86N, L88D, S89G, K90A, D91L
notes: also called AVA04 clone 227
Q: How did the EC50 (huPD-L1 on H441 cells) turn out when B8 was run?
A: Its EC50 is 0.04 nM.

B9: AVA04-269 (designed binder)
Affimer polypeptide: MIPRGLSEAKPATPEIQEIVDKVKPQLEEKTNETYGKLEAVQYKTQVLAKEYGPEEWWSTNYYIKVRAGDNKYMHLKVFNGPGDYEQVLIHADRVLTGYQVDKNKDDELTGFAAAGHHHHHH
notes: also called AVA04 clone 269
Q: How did the EC50 (huPD-L1 on H441 cells) turn out when B9 was run?
A: The EC50 was 0.01 nM.
